Results on 20 sequences are retold here after a protein production outcome set (Wang et al. 2014).

A short description of the series: label from the status in PepcDB records.
With “TVVRYNPDNHADESFAARPALLWVHGMTDYFFHTEFAEFFHNAGFAVYGIDLRKCGRSYRPGQQWHYTSDLAHYFPDLTAAAEVISSTHPELVPVAHSTGGLIVPLWMSQMRTSNPAAIEKIPALVLNSPWLDMMYPPLFIKLITPMVRVLGKRSPTTIIPGGGLGAYGKSIHKNFYGEWDFDTTIKPVEGHKKSIGWLRAVMAGQAEIHHDHVNVGVDVLTLCSNKSWLKSEYTEDTNTSDAVLDVKHIQKWAPHLSSPSSRVDVEIIDNARHDIFLSRKPARDHASEVLNNWLQSK”, the protein production result is given as “failed”.

On to “MDKLEAMQVYVCVVDTHSFIRAAEVLGVPRSTVSRVVKELESWLKIQLLQRTTRKLSVTAEGRRYYEECKRVLADIAAMESSFPGRAAQPKGRFKVGMPQSLARHCIIPTLPAFLRQYPELELILCSSDSVEDIILQGYDCVIRAGRIDDSTTLVARPLASFNWVIAASPTYIERYGSPENLDDLQKHYAVGYLNHRTGRTTDWFFTREGEDYAMRVQETLVVDDTDAYIQAGIQGLGLIRVASYLVAPYLHSGALVTCMDNHSYDLPLALVYPQNRFLPPAVRAFYHWCKTALSQPEPFC”, for which the protein production result was “failed”.

For “MDSGKSRSLETTVKRVYRDLLLPKINTSKKMSTLTNSPSSLEGTPGIKKNSGEMQAEASAERVKLTKSIKEKQNNELEKVALKRKADSEEKLVGKKEAKIMELDNQLVTTVPLPHIPLKNIMDVEMKLVYVDEEDVSYEFAQPNMCLGLQATGQTATTMPPASPRDLTTLPQIDKWLQVALKDASSCYRQKKYAVAAGQFRTALELCSKGAALGKPFEAHAEDIASIASFIETKLVTCYLRMRKPDLALNHAHRSIVLNPAYFRNHLRQAAVFRCLERYSEAARSAMIADYMFWLCGGSEHSVSKLIKLYWQAMIEEAITRAEAFSVMYTPFATRIKPENIEKVKEVFMRTHPTYVDCIYTDTQGLHVLPQTADWSCFPPQQYLLTLGFKNKEDGKFLEKVSSRKLPTYTEHKTPFSPLTREDTVRHMETVGKRILPILDFIRSTQLNGNFHACSGVMEKLHYASLLSRLQRVKEQAQVINQAMAELATVPYLQDISQQEAELLQSLMADAMDTLEGKKSDKERVWNTIQKVKF”, the protein production entry is recorded as “failed”.

For the sequence “MRDHVEIGIGREARRTYSLDDISVVSSRRTRSSKDVDTTWHIDAYKFDLPFMNHPSDALASPEFVIEMGKQGGLGVINAEGLWGRHADLDEAIAKVIAAYEEGDQAAATRTLQELHAAPLDTELLSERIAQVRDSGEIVAVRVSPQNVREIAPIVIKAGADLLVIQGTLISAEHVNTGGEALNLKEFIGSLDVPVIAGGVNDYTTALHMMRTGAVGIIVGGGENTNSLALGMEVSMATAIADVAAARRDYLDETGGRYVHIIADGSIENSGDVVKAIACGADAVVLGSPLARAEEAAGKGYFWPAVAAHPRFPRGVVTESVDLDEAAPSLEQILHGPSTMPWGVENFEGGLKRALAKCGYTDLKSFQKVSLHVN”, the protein production entry is listed as “not failed”.

As to “MSDPAEVPTASPLLETVGLACERDWRMLFERLDLRLAAGEMLQVVGPNGSGKTSLLRLLSGLMQPTAGEVRLNGRPLAEQRGELARSLLWIGHAAGIKGLLSAEENLTWLCALHQPASREAIWQALADVGLRGFEDVPCHTLSAGQQRRVALARLYLDAPPLWILDEPFTALDKQGVAQLETHLAGHCQRGGMVVLTTHHSLQQVPAGYRELDLGALKAASGATVEPALGDPA”, the protein production result is “failed”.

As to “MSEKMVAIMKTKPGYGAELVEVDVPKPGPGEVLIKVLATSICGTDLHIYEWNEWAQSRIKPPQIMGHEVAGEVVEIGPGVEGIEVGDYVSVETHIVCGKCYACRRGQYHVCQNTKIFGVDTDGVFAEYAVVPAQNIWKNPKSIPPEYATLQEPLGNAVDTVLAGPISGKSVLITGAGPLGLLGIAVAKASGAYPVIVSEPSDFRRELAKKVGADYVINPFEEDVVKEVMDITDGNGVDVFLEFSGAPKALEQGLQAVTPAGRVSLLGLYPGKVTIDFNNLIIFKALTIYGITGRHLWETWYTVSRLLQSGKLNLDPIITHKYKGFDKYEEAFELMRAGKTGKVVFMLK”, the protein production result is listed as “not failed”.

For “MGASTFWIITIVFCIAIYFLDKFLRKKLNMPKGGFWGYKKHVNSLHKKLEIGLLFIYLITSFIFIFKFESINIAYVIFTYLGGTLILRALMEWKYDRESKEYIFSVIGVFTFIFMTSILFYFFPPAV”, the protein production entry is “failed”.

“MSLLNIKFTDNAVDYLKRREILDKILILITDDGGGKYSIQGGSCSMGAHFSIIWLDKVDPDYPVKIANEQNVKIYTSDFDKTMLGPNMVMDYNAGSLSLSSDEGLLDGSVDIGNGAALLKANKNVQMGINRQCEGHHHHHH”: the protein production result is “not failed”.

On to “MAKVVKLEPISRETTVNTNDNLLSALLDSELHVLKECGGRGMCATCHVYIKEGMESLSPINKREQRTLEVITTANATSRLACQARVLGPGVVVELPSG”, for which the protein production entry was “failed”.

As to “MQDIFEEIIDYLKGIWLKRRYIIIATWLICPIGWYFVAAMPNVYQSEARVYVDTQSLLRPLLKGLTVETNPDTQIRLMVKTLLSRPNLERISRMTDLDVQASTPAQYEAIIKNLKDNIKISSARRENIYTLSIEDEDPEMAKNIVRSALTVFIENTLGETRSDSDSAQKFLNTQIKDYENRLSNSEARLTSFKQKYSGILPDQSGGYYAKLNGNREKLKAIELDLLENKTRLDSAKKQLAQSVVADTGSDNKIKSENSIQTTYDDRINELEVLLDNLKLRYTEKHPDVIETSRNLEHLNKLRSSEIEKYLAQNNENTGSLKRLSANPVIQEVQIHVNQLENLIASLNVRADNYRQRIIELENRVHTLPEIEAELIALNRGYGITKEKYEELLSRKETAQLAQQADETTDKIQFRVIDPPRKATKPSGPKRFLLFGVVTLIGFAVGIGLSLLMSQLNPVATSTAQLSKITGVPIFGVISANENLGLQQWHKKKTFIFIGSNVLLLCLLVLFVSYFLFPDTIQAPLKRIF”, the protein production result was “failed”.

For the sequence “MGVISAYAVVHERAAIIDPGTAKGAEIILDEIDRSWNVEYICPTHIHIDHGGGAARLAKALDAKIIVHPRGVKHVVNPEKLWEASKAVLGEVAEIYGKPESIDESKVIAVEDEQEFDLGGERLKVFHAPGHAPHMLVYYLTNSKVLFPADAVGMCFGGVVFPLTPPPFDADAALKTLKRLKGLKVDYVAFTHYGVVELEHHHHHH”, the protein production entry was “failed”.

As for “MIPLVSIIVPMYNVEPFIEECIDSLLRQTLSDIEIILVNDGTPDRSGEIAEDYAKRDARIRVIHQANGGLSSARNTGIKAARGTYIGFVDGDDYVSSAMFQRLTEEAEQNQLDIVGCGFYKQSSDRRTYVPPQLEANRVLTKPEMTEQLKHAHETRFIWYVWRYLYRRELFERANLLFDEDIRFAEDSPFNLSAFREAERVKMLDEGLYIYRENPNSLTEIPYKPAMDEHLQKQYQAKIAFYNHYGLAGACKEDLNVYICRHQLPMLLANACASPNSPKDIKKKIRQILSYDMVRQAVRHTPFQHEKLLRGERLVLALCKWRLTFLIKLFFEQRGTMKGSAKQALEHHHHHH”, the protein production result is listed as “failed”.

With “MAEKSCSLTEFVGTAIGDTLGLVIANVDTALLDAMKLEKRYRSIGILGARTGAGPHIMAADEAVKATNTEVVSIELPRDTKGGAGHGSLIILGGNDVSDVKRGIEVALKELDRTFGDVYGNEAGHIELQYTARASYALEKAFGAPIGRACGIIVGAPASVGVLMADTALKSANVEVVAYSSPAHGTSFSNEAILVISGDSGAVRQAVTSAREIGKTVLATLGSEPKNDRPSYI”, the protein production entry was “not failed”.

As to “MTMDGDSSTTDASQLGISADYIGGSHYVIQPHDDTEDSMNDHEDTNGSKESFREQDIYLPIANVARIMKNAIPQTGKIAKDAKECVQECVSEFISFITSEASERCHQEKRKTINGEDILFAMSTLGFDSYVEPLKLYLQKFREAMKGEKGIGGAVTATDGLSEELTEEAFTNQLPAGLITTDGQQQNVMVYTTSYQQISGVQQIQFS”, the protein production result was “failed”.

Consider “MSKAIVLDSHLKEKGSVELPKRYESINSHNLYLYVKHYLSSARANTAKSKNRAEVSGGGRKPWAQKGGGRARAGSITSPVFVGGGVSHGATNNRNYNLKINKKQKRLALEYALEEKAQANKLFVVEKIAIKGVVEDNKRKHLTKEANQMFQALEQRDTLFVCMNMDEYTELAFSNLKKCLIVDVSELNAYLLAAFSSVVMEEAAFQHVVQDKTEE”, for which the protein production entry is “failed”.

Regarding “MSMVGAIILSIIIGIAAFFIHPLLYIGLALMGLIGWQRVRREREHFHTRVLRIRADYVVPFLPGLIAGSLLSLVTIVIGLTVSIDWLWLLLIVYLLTIVTMNIRWISPAYVGAFMIGVVLLAPFVTTGWPWFDERLQSASQIPVLVIMYLTVLLLSAEGMLIAKRGGSFSSPVVVRSKRGKWVGFHRVKRLWLLPVVLFIPEGAIPTFSFWPILTVAGVSLQPLVVPFLIGTDFKIWSSLPKVVSRKVGNQVLGLALTLALIVCITWYVPWLSVLFAIVAIVGREGIHLMAKIKDRSSTSLFTNQGTGCKVLGILPGSPAEKMGIKIGETILRVNGKMVNNEYSFYEALQENSAFCRLEVIDKAGEVRFAQGALYDGEHHQLGVLLVKEDRELQDSVI”, the protein production entry is listed as “failed”.

With “PEQHRLRYQSLKQQLDDYYQEVTVQNYLDLTTRSHAFDQWLNNNIQLDWVKATVVKDAPDKIRAKANKEQHLNFQLIKHLEKPEDNVDLISAYFVPEKQGAKHLSDMAQDGIKVRVLTNSFKANDVPVVHAFYAKYRQELLENGVQLYEFLPTLEKEELDKYTDELVKKAKVSIKGLSRSSLHAKMMALDQKQVFIGSFNFDPRSAYLNTEIGVILNSPPLAMAVHQTMDQQLTHYAYKLVLDANHKINWYRQTS”, the protein production entry is “failed”.

Regarding “MPVYLYYGEDTYSLNQKIDHLVNQNVHAEWKDFNYIKLSGNEKNIAAKVFTEVMTLPFGEGNKIVHTDSDHLIGSLSNEDNNQELENQLSRIPASNILLITSNKKPDSRRTVVKTILKYAQQEEFPLVPCWDKKGIVNLIGKYAAIHQVKFTPDVTDYLVEAIGNNTARVDSEFAKLAVYASEKIISLEEIKQLVSNHNTDYQKLTIAMLRNHSNLAIAQVDKLLDSNEHPLKIVATLTSFFRTWLITKAGVEARLSDIKIAEIAEVKNPKRLYYLKDEIKFVGVQKLKNSLTLLLQLETELKSGTNNLISRIIEICMI”, the protein production entry was “failed”.

As to “MIALHTLLCADTPDDTPVCFDETTTMTRGMFRAHVAACIAAWSDRCANRYALCIDDPFAFACALFALLASGKAVVIPASSAPAYLASIADAYDSALTDGDMEGIISQAAQPPGAALLRPIAPHAPITLYTSGSSAAPKAIHKTLAQFDAEVRTLEDHWGEWIGPGAILASVPHHHIYGLLFRIFWPLASGRAFGRRTYAEPHALQTALTRRETAAIVSSPAQLARWPSLPGFDTLSPLPAAVFSSGGPLDEAAAATFASAHGTAPTEIYGSTETGGIAWRRRNESDAWQAFANVAVRREADGALSVRSPHLGHPDWHRTDDAAEFDDAGRFRLRGRMDRIVKLDGKRVSLPEIENWLGLHPYVAQSAAVLLPGASRERLGVLSALTSAGVEALRQHGRIGLAKTLRRHLAAYVAPTLIPRKWRFRMSLPVDARGKLPASAVAASFAAGRKGFEMLSHVRDAEGDHYELRVPPELVHFRGHFPGLPILPGVVLVDWIACLAAELADSTRSIRSIDQLKFMAPVPPAALVSVQLTHEPQRCRVRFRARLGTRECASGALVYREAD”, the protein production entry is “failed”.

With “MDHKDYSRQNAERRLLLSKDEERIRDELEMEIERNLEGEFKDGIYNLALKLRRLYEQRREREELFDVSMRKSKRVLEVNINIKMEGDTKIEITEKKKEVDNEKTKKAENSDKRKKFVAVGEDKTGKEKMKNQTRAHELRWKW”, the protein production entry was “failed”.
